From the DeepSol protein solubility set come the findings set out here.

A short description of the series: soluble on expression in E. coli; label from the status in PepcDB or PDB records.
For “MGSDKIHHHHHHMSLKQMECVVAVAKLRSFTKAAAKLKVAQPSLSQSIQAVEKQVGVPLFDRSTFPITLTHAGEVYVAKANAIIELYKDLNTQMCDVIGSDKGPLRLGFSQTGYQFIPTALAKFCKRFPCADLRVVQVFSTLKLEKMLSEGDIDIATLVLPLSSPEIDYKIIKENQAFLALPITHPLSQKAIREAQDSPSVSLEELKEERFILPKSTQRSRPIFDEIFRKAGFEPKIFCETETFDIANAIVASGVGACFTLPQFIKEDKQDKVVLFHVDEPLLARTVVLAYRKDKHLSKMACEFLTIARSL”, the “soluble on expression in E. coli” value is “not soluble”.
The entry for “MAHQYPSWIFINEKTFITREQLNSLLKTYNIFYENQKNLHILYGETEDGKLIVEGMLDIFWGVKRPIQLKIQDEKPFSSFTSMKSSDVFSSKGMTRWGEFDDLYRISELDRTQIPMSEKRNSQEDYLPYHSNTLKPHAKDEPDSPVLYRTMSEAALVRKRMKPLMMDRKERQKNRASINGHFYNHEIENSPQDFALHIIFATGEQRRLKKTDIPLLQRLLQGPSEKNARIFLMDKDAEEISSDVAQYINFHFSLLESILQRLNEEEKREIQRIVTKFNKEKAIILKCLQNKLVIKTETTV” is “not soluble”; for “MYQSYPQQQQPGYQPQQPSHPIVGAGAAPTMAPQNPYGQQPFQPQFQQGQYQQPSGQQYQSMQQQFQSPQQQAPTQPTHPDRESYQTALPANVTPGWNDPPSMLPSAGTTPNRLSNMRRRPVDPSISGNVGYGTSSQTSNPYGASASPYGAPQQNPQQYQEQPQSYQTYQQPQQQQPQYGQQQNPQQFGQQYPGAGAPHQQQHYGM” it is “not soluble”; for “MGQAPDRPHLETFLARLRAGAKILELGCGGGQDSEYMLSAGFDVHPTDGTPDIAKAAQARLGIPVRTLLFENIEDAALYDAVWANACLLHVPRLALPGIIGRIHTALKPGGVFYASFKAGEVEGRDTFGRYYNYPSKAWLEETYGQFAWTEVEIEARQGSGYDKLPTDWLHVTATKALEHHHHHH” it is “not soluble”.
In the case of “MKGVIMIIDGMADRPLEKLSGRTPLEAASTPNMDRIAESGINGIMDPIKPGVRAGSDTSHLSILGYDPYRVYTGRGPFEAAGVGLDVKPGDIAFRCNFATADEDMIITDRRAGRIRSGTSSIARTINSMTIEGFEDVEIIFRESTGHRAVLVLRGPGLGDKVSDADPKVEGKPPKKIKALDGSPESRKTAEVLNRIVKESYEILRDHPVNTGRIERGEAPANIILPRGAGAVPHVEKFQERYDLKAACIAETGLIKGIGHLTGMDVIDVEGATGGIDTDLESIKNAISSAIAADYDFLLINIDGADEAGHDGDLEGKVRFIERVDSILGDLMGDDIYFILTADHSTPVSVMDHTGDPVPIAITGPEVRVDDVTSFSERAAAAGGLCRIRGSDVMDILLDLMNKKEKFGALEHHHHHH”, the “soluble on expression in E. coli” value is on record as “not soluble”.
“MSLKYLLLGMMLLGSFAASAGMDPQQLKQTIEQRLGVQVYLVDETPMPGLYMLGTAQGLLYTDARGDYVLQGTMLDLAHDMKNLTMLGLRQQRQLALAQIGERRVQLRAEQERHRVTLFTDLACSSCRTTLAELPVLQARGVSVQLLPVLGTFADLAEAQARWCDPRQFDALDLSDRLPETGCNEILAHHIGLSQWLGIKALPSWVLPNGDLVRGYQSPEQLLKILDHINAPANPSSEGHHHHHH”: the “soluble on expression in E. coli” value is “soluble”.
The value for “GVALGATRVIYPAGQKQVQLAVTNNDENSTYLIQSWVENADGVKDGRFIVTPPLFAMKGKKENTLRILDATNNQLPQDRESLFWMNVKAIPSMDKSKLTENTLQLAIISRIKLYYRPAKLALPPDQAAEKLRFRRSANSLTLINPTPYYLTVTELNAGTRVLENALVPPMGESAVKLPSDAGSNITYRTINDYGALTPKMTGVME” was “soluble”; that for “MKLLQRGVALALLTTFTLASETALAYEQDKTYKITVLHTNDHHGHFWRNEYGEYGLAAQKTLVDGIRKEVAAEGGSVLLLSGGDINTGVPESDLQDAEPDFRGMNLVGYDAMAIGNHEFDNPLTVLRQQEKWAKFPLLSANIYQKSTGERLFKPWALFKRQDLKIAVIGLTTDDTAKIGNPEYFTDIEFRKPADEAKLVIQELQQTEKPDIIIAATHMGHYDNGEHGSNAPGDVEMARALPAGSLAMIVGGHSQDPVCMAAENKKQVDYVPGTPCKPDQQNGIWIVQAHEWGKYVGRADFEFRNGEMKMVNYQLIPVNLKKKVTWEDGKSERVLYTPEIAENQQMISLLSPFQNKGKAQLEVKIGETNGRLEGDRDKVRFVQTNMGRLILAAQMDRTGADFAVMSGGGIRDSIEAGDISYKNVLKVQPFGNVVVYADMTGKEVIDYLTAVAQMKPDSGAYPQFANVSFVAKDGKLNDLKIKGEPVDPAKTYRMATLNFNATGGDGYPRLDNKPGYVNTGFIDAEVLKAYIQKSSPLDVSVYEPKGEVSWQ” was “soluble”.
